Laboratory results as given in patent US20260166139A1.
Several values for one entry are separate records, joined by “and”; a condition that tells them apart may be missing. Equal entries are not always repeated.

Experiments:
CTLA4-mFc [1] = experiment: competitive ELISA, B7/1-hFc coated (competitor), CTLA4-mFc added; antibody 0 (no antibody)
CTLA4-mFc [2] = experiment: competitive ELISA, B7/1-hFc coated (competitor), CTLA4-mFc added; antibody 5 µg/ml diluted 1:243
CTLA4-mFc [3] = experiment: competitive ELISA, competitor B7-1; control run with 8D2H2L2
CTLA4-mFc [4] = experiment: competitive ELISA, competitor B7-2; control run with 8D2H2L17
CTLA4-mFc [5] = experiment: competitive ELISA, B7/1-hFc coated (competitor), CTLA4-mFc added; antibody 5 µg/ml
human CTLA4 (human) [6] = target: human CTLA4 (human) (UniProt P16410); experiment: ELISA, coat human CTLA4 0.5 ug/ml; antibody 1:27 (start 1 ug/ml)
Chain of human CTLA4 (human) (P16410 36-161 limits assumed): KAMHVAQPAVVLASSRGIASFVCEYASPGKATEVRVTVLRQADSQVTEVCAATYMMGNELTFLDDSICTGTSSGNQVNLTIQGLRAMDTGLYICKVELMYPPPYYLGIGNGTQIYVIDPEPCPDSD

CTLA4-mFc [7] = experiment: competitive ELISA, CTLA4-mFc coated, competitor B7/2-His; antibody 1 µg/ml diluted 1:27
CTLA4-mFc [8] = experiment: competition ELISA, coat B7/1-hFc 0.2 ug/ml (competitor), CTLA4-mFc 0.3 ug/ml detected; antibody 1:243 (start 3 ug/ml)
human CTLA4 (human) [9] = target: human CTLA4 (human) (UniProt P16410); experiment: ELISA, coat human CTLA4 0.5 ug/ml; antibody 1:81 (start 1 ug/ml)
CTLA4-mFc [10] = experiment: competitive ELISA, CTLA4-mFc coated, competitor B7/2-His; antibody 1.5 µg/ml diluted 1:729
human CTLA4 (human) [11] = target: human CTLA4 (human) (UniProt P16410); experiment: ELISA, coat CTLA4 0.5 ug/ml; antibody 1:81 (start 1 ug/ml)
CTLA4-mFc [12] = experiment: competitive ELISA, B7/1-hFc coated (competitor), CTLA4-mFc added; antibody 0 (no antibody); remark: listed apart in the source
[13] = target: monkey CTLA4-hFc (monkey); experiment: ELISA, coat monkey CTLA4-hFc 0.25 ug/ml; antibody 1:729 (start 1 ug/ml)
[14] = target: monkey CTLA4-hFc (monkey); experiment: ELISA, coat monkey CTLA4-hFc 0.25 ug/ml; antibody 0 (blank)
CTLA4-mFc [15] = experiment: competitive ELISA, CTLA4-mFc coated, competitor B7/2-His; antibody 3 µg/ml diluted 1:9
human CTLA4 (human) [16] = target: human CTLA4 (human) (UniProt P16410); experiment: ELISA, coat CTLA4 0.5 ug/ml; antibody 1:27 (start 1 ug/ml)
human CTLA4 (human) [17] = target: human CTLA4 (human) (UniProt P16410); experiment: ELISA, coat CTLA4 0.5 ug/ml; antibody 0 (blank)
CTLA4-mFc [18] = experiment: competitive ELISA, B7/1-hFc coated (competitor), CTLA4-mFc added; antibody 5 µg/ml diluted 1:9
CTLA4-mFc [19] = experiment: competitive ELISA, CTLA4-mFc coated, competitor B7/2-His; antibody 1 µg/ml diluted 1:9
CTLA4-mFc [20] = experiment: competitive ELISA, B7/1-hFc coated (competitor), CTLA4-mFc added; antibody 5 µg/ml diluted 1:81
human CTLA4 (human) [21] = target: human CTLA4 (human) (UniProt P16410); experiment: ELISA, coat human CTLA4 0.5 ug/ml; antibody 0 (blank)
CTLA4-mFc [22] = experiment: competitive ELISA, CTLA4-mFc coated, competitor B7/2-His; antibody 0 (no antibody)
[23] = target: monkey CTLA4-hFc (monkey); experiment: ELISA, coat monkey CTLA4-hFc 0.25 ug/ml; antibody 1:81 (start 1 ug/ml)
CTLA4-mFc [24] = experiment: competitive ELISA, B7/1-hFc coated (competitor), CTLA4-mFc added; antibody 5 µg/ml diluted 1:729
[25] = target: monkey CTLA4-hFc (monkey); experiment: ELISA, coat monkey CTLA4-hFc 0.25 ug/ml; antibody 1:3 (start 1 ug/ml)
CTLA4-mFc [26] = experiment: competitive ELISA, competitor B7-1; control run with 8D2H1L1
human CTLA4 (human) [27] = target: human CTLA4 (human) (UniProt P16410); experiment: ELISA, coat human CTLA4 0.5 ug/ml; antibody 1:243 (start 1 ug/ml)
human CTLA4 (human) [28] = target: human CTLA4 (human) (UniProt P16410); experiment: ELISA, coat human CTLA4 0.5 ug/ml; antibody 1:9 (start 1 ug/ml)
CTLA4-mFc [29] = experiment: competitive ELISA, B7/1-hFc coated (competitor), CTLA4-mFc added; antibody 5 µg/ml diluted 1:243; remark: listed apart in the source
CTLA4-mFc [30] = experiment: competitive ELISA, CTLA4-mFc coated, competitor B7/2-His; antibody 3 µg/ml
murine CTLA4 (murine) = murine CTLA4 (murine) (UniProt P09793); experiment: ELISA on coated CTLA4, source Mouse (row of 8D2)
CTLA4-mFc [31] = experiment: competitive ELISA, CTLA4-mFc coated, competitor B7/2-His; antibody 1.5 µg/ml diluted 1:27
CTLA4-mFc [32] = experiment: competitive ELISA, CTLA4-mFc coated, competitor B7/2-His; antibody 1.5 µg/ml diluted 1:81
CTLA4-mFc [33] = experiment: competitive ELISA, B7/1-hFc coated (competitor), CTLA4-mFc added; antibody 5 µg/ml diluted 1:81; remark: listed apart in the source
CTLA4-mFc [34] = experiment: competitive ELISA, CTLA4-mFc coated, competitor B7/2-His; antibody 1 µg/ml
CTLA4-mFc [35] = experiment: competitive ELISA, CTLA4-mFc coated, competitor B7/2-His; antibody 0 (no antibody); remark: listed apart in the source
CTLA4-mFc [36] = experiment: competitive ELISA, CTLA4-mFc coated, competitor B7/2-His; antibody 3 µg/ml diluted 1:729
human CTLA4 (human) [37] = target: human CTLA4 (human) (UniProt P16410); experiment: ELISA, coat human CTLA4 0.5 ug/ml; antibody 1:27 (start 1 ug/ml); remark: listed apart in the source

Chain of control antibody 11.2.1 (VH): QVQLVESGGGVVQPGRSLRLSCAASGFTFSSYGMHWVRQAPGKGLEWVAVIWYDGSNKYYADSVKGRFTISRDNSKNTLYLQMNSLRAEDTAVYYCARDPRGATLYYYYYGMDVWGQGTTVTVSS
Chain of control antibody 11.2.1 (VL): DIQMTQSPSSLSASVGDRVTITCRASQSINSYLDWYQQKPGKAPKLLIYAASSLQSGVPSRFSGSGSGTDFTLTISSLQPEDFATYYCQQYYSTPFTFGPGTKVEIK
Chain of CTLA4-mFc (chain, as listed by the source limits assumed): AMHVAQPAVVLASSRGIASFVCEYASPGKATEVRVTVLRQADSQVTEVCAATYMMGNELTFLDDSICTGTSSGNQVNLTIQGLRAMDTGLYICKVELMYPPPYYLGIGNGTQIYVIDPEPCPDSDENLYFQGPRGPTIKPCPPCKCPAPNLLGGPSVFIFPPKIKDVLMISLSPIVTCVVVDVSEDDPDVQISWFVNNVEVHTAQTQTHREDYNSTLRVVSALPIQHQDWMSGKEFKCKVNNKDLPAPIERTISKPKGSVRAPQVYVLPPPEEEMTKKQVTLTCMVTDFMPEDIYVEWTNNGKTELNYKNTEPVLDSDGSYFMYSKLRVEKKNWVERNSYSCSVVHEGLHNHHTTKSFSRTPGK

absorbance at 450 nm (CTLA4-mFc [1]): 1.28 and 1.3
absorbance at 450 nm (CTLA4-mFc [2]): 1.3 and 1.31
EC50 (CTLA4-mFc [3]): 1.07 nM
EC50 (CTLA4-mFc [4]): 0.349 nM
absorbance at 450 nm (CTLA4-mFc [5]): 0.06
absorbance at 450 nm (human CTLA4 (human) [6]): 2.34 and 2.29
absorbance at 450 nm (CTLA4-mFc [7]): 0.57
absorbance at 450 nm (CTLA4-mFc [8]): 0.9 and 0.52
absorbance at 450 nm (human CTLA4 (human) [9]): 0.499 and 0.426
absorbance at 450 nm (CTLA4-mFc [10]): 0.981 and 0.746
absorbance at 450 nm (human CTLA4 (human) [11]): 1.37 and 1.53
absorbance at 450 nm (CTLA4-mFc [12]): 0.683 and 0.735
absorbance at 450 nm [13]: 0.082 and 0.094
absorbance at 450 nm [14]: 0.048 and 0.051
absorbance at 450 nm (CTLA4-mFc [15]): 0.412 and 0.482
absorbance at 450 nm (human CTLA4 (human) [16]): 2.13 and 2.28
absorbance at 450 nm (human CTLA4 (human) [17]): 0.05
absorbance at 450 nm (CTLA4-mFc [18]): 0.33 and 0.3
absorbance at 450 nm (CTLA4-mFc [19]): 0.17 and 0.16
absorbance at 450 nm (CTLA4-mFc [20]): 0.698 and 0.66
absorbance at 450 nm (human CTLA4 (human) [21]): 0.057 and 0.061
absorbance at 450 nm (CTLA4-mFc [22]): 0.91 and 0.8
absorbance at 450 nm [23]: 0.297 and 0.313
absorbance at 450 nm (CTLA4-mFc [24]): 1.32 and 1.31
absorbance at 450 nm [25]: 1.54 and 1.46
EC50 (CTLA4-mFc [26]): 1.69 nM
absorbance at 450 nm (human CTLA4 (human) [27]): 0.223 and 0.219
absorbance at 450 nm (human CTLA4 (human) [28]): 3.21 and 3.19
absorbance at 450 nm (CTLA4-mFc [29]): 0.755 and 0.9
absorbance at 450 nm (CTLA4-mFc [30]): 0.492 and 0.442
EC50 (murine CTLA4 (murine)): 0.023 nM
absorbance at 450 nm (CTLA4-mFc [31]): 0.622 and 0.529
absorbance at 450 nm (CTLA4-mFc [32]): 0.805 and 0.649
absorbance at 450 nm (CTLA4-mFc [33]): 1.17 and 1.2
absorbance at 450 nm (CTLA4-mFc [34]): 0.04
absorbance at 450 nm (CTLA4-mFc [35]): 0.987 and 0.819
absorbance at 450 nm (CTLA4-mFc [36]): 1.36 and 1.23
absorbance at 450 nm (human CTLA4 (human) [37]): 0.893 and 0.682
Substance: control antibody 11.2.1
